{"source": "patent US20060166324", "about": "“Screening tools for discovery of novel anabolic agents” (USA as represented by the Dept. of Veterans Affairs, published 2006)", "molecules": {"B1": {"name": "IGF-1 ARE1 probe (dsDNA)", "DNA 1": "GACTTGACCATATCTTATTCCTCTTTG", "DNA 2": "CAAAGAGGAATAAGATATGGTCAAGTC"}, "B2": {"name": "IGF-1 ARE2 probe (dsDNA)", "DNA 1": "TTGTAGTTGGGCACATAGTAGAGCTCA", "DNA 2": "TGAGCTCTACTATGTGCCCAACTACAA"}, "B3": {"name": "consensus SRE probe (dsDNA)", "DNA 1": "ATGCATTGGGTACATCTTGTTCACATA", "DNA 2": "TATGTGAACAAGATGTACCCAATGCAT"}}, "key": {"[1]": {"system": "Androgen receptor (full length) (Homo sapiens)", "assay": "cell_activity", "details": "HepG2 luciferase reporter, testosterone"}, "[2]": {"system": "Glucocorticoid receptor (Rattus norvegicus)", "assay": "cell_activity", "details": "HepG2 luciferase reporter, dexamethasone"}, "[3]": {"molecular_target": "T1, Androgen receptor DNA-binding domain (Homo sapiens, UniProt P10275 P10275:560-632)", "T1 sequence (P10275 560-632, one chain of several)": "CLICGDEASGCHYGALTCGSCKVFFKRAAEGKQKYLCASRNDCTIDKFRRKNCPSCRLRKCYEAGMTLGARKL", "assay": "EMSA; band weaker than SRE; diminished by excess cold SRE", "details": "tags: GST fusion (pGEX 4T-1 hAR2, E. coli BL21); label: 32P", "from_the_text": "(§1) In order to more directly test whether the AR bound to sequences with ARE1 and ARE2, binding of a GST-tagged version of recombinant AR DNA-binding domain to radiolabeled probes was examined using electrophoretic mobility shift assays."}, "[4]": {"molecular_target": "T1, Androgen receptor DNA-binding domain", "assay": "EMSA; band consistently weaker than SRE; greatly diminished by excess cold SRE", "details": "tags: GST fusion (pGEX 4T-1 hAR2, E. coli BL21); label: 32P", "from_the_text": "as §1"}, "[5]": {"molecular_target": "T1, Androgen receptor DNA-binding domain", "assay": "EMSA; strong band, greatly diminished by excess unlabeled probe", "details": "tags: GST fusion (pGEX 4T-1 hAR2, E. coli BL21); label: 32P", "from_the_text": "as §1"}}}
{"molecule": "pGL3-13a IGF-1 promoter insert -1370 to -1250 (ARE2)", "values": [{"measurement": "activity (fold induction)", "setting": "[1]", "result": "> 20"}, {"measurement": "activity (fold induction)", "setting": "[2]", "result": 5}]}
{"molecule": "pGL3-22 IGF-1 promoter insert -1508 to -1402 (ARE1)", "values": [{"measurement": "activity (fold induction)", "setting": "[1]", "result": "> 5"}, {"measurement": "activity (fold induction)", "setting": "[2]", "result": "< 2"}]}
{"molecule": "pGL3-32 IGF-1 promoter insert -1429 to -1250 (ARE1 and ARE2)", "values": [{"measurement": "activity (fold induction)", "setting": "[1]; 25-fold plateau in FIG. 15", "result": 30}, {"measurement": "activity (fold induction)", "setting": "[2]", "result": 5}]}
{"molecule": "B1", "values": [{"measurement": "binding result", "setting": "[3]", "result": "binds"}]}
{"molecule": "B2", "values": [{"measurement": "binding result", "setting": "[4]", "result": "binds"}]}
{"molecule": "B3", "values": [{"measurement": "binding result", "setting": "[5]", "result": "binds"}]}
